# Source: the DeepSol protein solubility set
# Experiment: soluble on expression in E. coli; label from the status in PepcDB or PDB records
row,Sequence,soluble on expression in E. coli
1,MGSDKIHHHHHHMVNPKLPVIWYGGDYYPEQWDEETFERDIRMFKEAGINVVTIGVFSWSLIQPDENTYDFSFFEKVMDRLYKEGIYVCLATPTSAPPHWMTQKYPEILFTDVNGVKREKGGRQNFCPNSEKYRYFARNIAEKLAEHFKDHPALVLWHVNNEYLNYCYCDICRGKFQNWLKEKYGTLDELNRRWNTRFWSQTFTAWEEIPVPTTRSVLVWRKDRYQSVLPELYLDYRRFMTQSMLECFLEEYRAIKKHTPDIPVTTNLIAATFKEWNYFEWAKHMDVAAWDNYPGYKEDFSVISLRHSLIRCLKEGKPFVLMEQSPSQACWRWYNPQKRPGEMRLWSYHALAHGAETLMFFQLRQSKGGVEKFHGAVITHVDSPNTRVFQEVKRVGEEIKSLSDILDARVVSQTALLFDWESWWAMEDTLTPSVDFRYLNEVQKYFKALVKTGLGVDVVGKDQNFERYRVLVAPVLYMVGKELAQKLKDYVSNGGILILTTMSGIVDEDDQVVLGGYPGYLRDLMGGYVEEIDALPPEEKNEILMFGKRYECSLVFDYIKTTTAEVLGRFGRDYYMNEPAVLRNNYGKGWVYYVGSSTSFDLVWDLVKFMEREHNLRAEIAPPDDVEVIKKIKGEKIFYFLFNHSHELQIVDLPEGMFRDLIKGNLYEKKVKLQPLDVLILLKE,not soluble
2,MVKPDWWIREMARKGMIEPFEERLVREGVISYGLSSFGYDLRAAPEWKIFTNVFSSLVDPKNFDPKSFVEYEGEEVVIPPNSFALTRSLEYIRMPDNVIAIALGKSTYARCGIVVNVTPLEPGWEGHVTLEISNTTPLPAKVYAGEGIVQLLFLEGPRPEVTYRDRKGKYQGQKGITLPRV,soluble
3,GPGSMPSITTAKREYEERLVDCLTKYSCVLFVGMDNVRSQQVHDVRRALRGKAEFMMGKKTLQAKIVEKRAQAKDASAEAKHFNDQCEEYNLLSGNTGLIFTNNAVQEITSVLDAHRVKAPARVGAISPCDVIVPAGSTGMEPTQTSFFQALNIATKIAKGMVEIVTEKKVLSVGDKVDNSTATLLQKLNISPFYYQVNVLSVWDRGVLFTREDLMMTEDMVEKMLMDGLS,not soluble
4,SAAPPGEYFSVGSQVSCRTCQEQRLQGEVVAFDYQSKMLALKCPSSSGKPNHADILLINLQYVSEVEIINDRTETPRPLASLNVSKLASKARTEKEEKLSQAYAISAGVSLEGQQLFQTIHKTIKDCKWQEKNIVVMEEVVITPPYQVENCKGKEGSALSHVRKIVEKHFRDVESQKILQRSQAQQPQKEAALSS,soluble
5,MAHHHHHHMHTYTTQPCATSTSVPQLTRLSVSSSGHSPAVPTNWSIGRPTTLRCRDTDSDVHCNWGAIQGEDEEDKESLIGCATQVWRISAEVQMPLQCSHGTRATEEETLLGAPTSHCGDHLTNGRGVFASSPPIVWQPAPLPASFSASQIDLSGGGQDNAVLLSGAPVGSAEEETHNDNREVTRSNVIPATGDIAATESNDSFVGLEAAPRKGYARSNSGTPPRSDLGSPNNAANLQAHGRAANGVSAGVELVYRAAASETNSHHFGASLCANIGSGCRARLGIPAEWRDHMCAATPQGRGVWVQVPGQLRESEYPASTTTAEAVAARLAHISIHTSPTPKRLAFEEEELVERVSGGGSPTLIPAVRFVADGAARRGACNEASVAQGAGGSTEVGLLGRGAGGLSSSGMRWASVFGDSGHLELCSSRIPSGLQLLRSRKRCLDEMQATDTQERHADTLVTGGISDARDASYLVPDRVARMSLATPFENLEEDGDGDEEAVKRQRREEQRRMRLQHLLPASPNTMDDLIPAPARALGTAVAPCSSVSSSHVRSTVHGIQSTQDQQHQQDRTRNDDPASWSQVSSISYVTPASQSTSMGLWGVPGTLSQGHHGGAVVCSVGSGSQLLTPLPTNVMPQPSHKP,not soluble
6,MGSDKIHHHHHHMDAFEKVRTRLETQPQEEYEVVNAEIKHGGFVYYQEGCCLVRSKDEEADSDNYEVLFNLEELKLDQPFIDCIRVAPDEKYVAAKIRTEDSETSTLVVVKLSDQPVMEASFPNVSSFEWVKDEEDEDVLFYTFQRNLRCHDVYRATFGDNKRNERFYTEKDPSYFVFLYLTKDSRFLTLNIMNKTTSEVWLIDGLSPWDPPVLIQKRIHGMLYYVEHRDDELYILTNVGEPTEFKLMRTAADAPAIMNWDLFFTMKRNTKVVDLDMFKDHCVLFLKHSNLLYVNVIGLADDSVRSLKLPPWACGFIMDTNSDPKNCPFQLCSPIRPPKYYTYKFAEGKLFEETGHEDPITKTSRVLRIEAKSKDGKLVPMTVFHKTDSEDLQRKPLLVHVYGAYGMDLKMNFRPEKRVLVDDGWILAYCHVRGGGELGLQWHADGRLTKKLNGLADLVACIKTLHSQGFSQPSLTTLSAFSAGGVLVGALCNSKPELLRAVTLEAPFLDVLNTMLDTTLPLTLEELEEWGNPSSDEKHKNYIKRYCPCQNIKPQHYPSVHITAYENDERVPLKGIVNYTEKLKEAVAEHTKGAGEGYQPPNIILDIQPGGNHVIEDSHKKITTQMKFLYEELGLDSTDAFEALKKYLKF,soluble
7,MGSDKIHHHHHHASCNKFDDLNTNPDAATKVTAPMLATKLILNITQQGSAKNFVYHSMLSKQIAWSENASDEQYNLFGRTDFDGYTILTNCQKMVDAANEGDKDSYAALAKFMKAYKLFYKSLEVGDIPYSDALKGEEGVQKPKYDTQKEVMRQVLEDLEEAYTLFSSGSDFDGDPIFGGDTENWKKTVVAFELKVLTHLCKKDTDADLKVKERFARLVSSGSLMTSNADNFQLVYSNKAGQLYPFYYTQNKHSDYLMMSSVIIDNLKKFNDYRMFYYASPAKAQTDKGIKDSEWDAYLSIDPSDSYSNISVLYGKGEFCLANLRYTRVPEGEPLMRLSYAEQNFILAEGAVRGWISEDASTYYKKGIEASMNFIADNTPDKEEYTHGRTITQEYIQEYLAQPVIQLSGDKEKDLEMILLQRYLASFLQHPYDAYYDYRRTGYPVLPINPSTNLNTEKNKIPTRWMYPEAEFSYNPDNANEAVQRQYNGSDDVNKLMWILQ,not soluble
8,MRTRSGSAEFSGPLRSVAILAQEKLGDCVLLTPLVRNLRQAFPDLEIHLITFSRASANFFMNDPQVTAVHLVKKQPRRYFREVLSRKFDLLFNTKDHPSTWFLLQSALIRARFKVGHNNPFHEGLYDRLLDTEFHAHMAVKNCALLPLLGVTADTEACRPSLEHHHHHH,soluble
9,MDPMYLLVDVGNTHSVFSITEDGKTFRRWRLSTGVFQTEDELFSHLHPLLGDAMREIKGIGVASVVPTQNTVIERFSQKYFHISPIWVKAKNGCVKWNVKNPSEVGADRVANVVAFVKEYGKNGIIIDMGTATTVDLVVNGSYEGGAILPGFFMMVHSLFRGTAKLPLVEVKPADFVVGKDTEENIRLGVVNGSVYALEGIIGRIKEVYGDLPVVLTGGQSKIVKDMIKHEIFDEDLTIKGVYHFCFGD,soluble
10,MDFEKIRKWLEITNEYKQSDFWTNVLKYKAPEHFFDSEASTFVYDFYQDEEYNFIIVEMPGVYEEELTIRLLSKTQLLIKGTITPVFPAEMEVLRERYYGEIERIIQLPEAAETHLLQIQLLNGLLHISYPRQVETVAFNKGLLEHHHHHH,not soluble
11,MSLSLSHFRITRFQFARDRVIGDSQVRADDVNVAALELVSESGEVGLGFIQTLFNPLPDQQEIESVFEHEVWPSLKGNRAIALVHRVNRPRGGNQRAYSLPFHEAVQVALWDLAAKEAGLPLHVLLGSRRNRVKAYASGLDFHLDDDAFVSLFSHAASIGYSAFKIKVGHRDFDRDLRRLELLKTCVPAGSKVMIDPNEAWTSKEALTKLVAIREAGHDLLWVEDPILRHDHDGLRTLRHAVTWTQINSGEYLDLQGKRLLLEAHAADILNVHGQVTDVMRIGWLAAELGIPISIGNTFLEAGVHMAVALPEVEWLEYSFQNFDHLVEQPIEIRDGYAYAPDRPGHGLVLSEKARGEWSRPRRLARSELGAAPENPRLPAKEGHHHHHH,soluble
12,EAAFWGASNELLHDPTMIKEGSSWYALGTGLTEERGLRVLKSSDAKNWTVQKSIFTTPLSWWSNYVPNYGQNQWAPDIQYYNGKYWLYYSVSSFGSNTSAIGLASSTSISSGGWKDEGLVIRSTSSNNYNAIDPELTFDKDGNPWLAFGSFWSGIKLTKLDKSTMKPTGSLYSIAARPNNGGALEAPTLTYQNGYYYLMVSFDKCCDGVNSTYKIAYGRSKSITGPYLDKSGKSMLEGGGTILDSGNDQWKGPGGQDIVNGNILVRHAYDANDNGIPKLLINDLNWSSGWPSY,soluble
13,MGRGSEFGIFAFTDSVFEITESVGRFELKVMRYSGARGTVIVPYWTENDTATESKDYEGARGELVFENNESEKFIDLFILEESSYEKDVSFKVHIGEPRLAPDDGLAAKIKEVEKKPVQDLTELDRILLLSKPRNGELTTAYVRIRESQEFKATVDKLVAKA,soluble
14,MGSDKIHHHHHHMSLLTVKDLGQSFIDKTLYEDANFVLNKEDHMGVTGQNGVGKSTLIKILTGEILPDNGQVKWQNKIDVGYLDQYAKLAPGVTIRGFLRTAFDDLFQKEKELNELYTKYAETSDEDLLEKAGKVQTYLEENNFYDIDTEIEQVASGLGLADLGYDHDVSKLSGGQRSKIILGKLLLQNPDVLVLDEPTNYLDVSHIDWLVDYLNNFEGAFIVVSHDYDFLGRITNCIIDIDFGTITRYTGTLKQAMRQKAANRETYLKAYANQQRKIAKTEAYIRKNKAGTRAKSAKSREKQLARMDVLTPPKNNRRAKFEFPYVATASNLLLQTQDLVIGYDQALVKSAFNFSVGGDEKVAITGFNGIGKTTLLKTLLGQLKPIYGSYDLSVTAKLAYFKQDLTWPNNNMTPLQYLQEEFERKKPKELRQALARMGLTAQQAMSPLKELSGGEQEKVKLAKMQFEPANLLFLDEPTNHLDNDTKDALRKAIINFSGGVIIVSHERDFFRGDWIDKTIDIETMN,not soluble
15,MSDVQSSLTGTWYNELNSKMELTANKDGTLTGKYLSKVGDVYVPYPLSGRYNLQPPAGQGVALGWAVSWENSKIHSATTWSGQFFSESSPVILTQWLLSSSTARGDVWESTLVGNDSFTKTAPTEQQIAHAQLHCRAPRLK,soluble
16,GIDVIGKKMTLCQLYAKQNAVRPNVKANTKSGRKYLMEILKNDRLGARSIDSIKPSDAKEWAIRMSENGFAYSTINNYKRSLRASFYIAIQDDYVRKNPFDFQLNTVIDDDTIPKTVLTSEQEARLLDFAKSDTVYHKNYDEILILLKTGLRISELCGLTVSDLDFENHLISVDHQLLRNTELGYYIETPKTKSSERQIPMEATCQALKRTLAKRDDRKCVEIDGYSHFLFLNRKGYPKTSGDFDRILRNLIKKYNKYHEEKLPHITPHTLRHTFCTNCANAGMNPKALQYIMGHANITMTLNYYAHATYKFGYG,not soluble
17,MAEFLDDQETRLCDNCKKEIPVFNFTIHEIHCQRNIGMCPTCKEPFPKSDMETHMAAEHCQVTCKCNKKLEKRLLKKHEETECPLRLAVCQHCDLELSILKLKEHEDYCGARTELCGNCGRNVLVKDLKTHPEVCGREGEEKRNEVAIPPNAYDESWGQDGIWIASQLLRQIEALDPPMRLPRRPLRAFESDVFHNRTTNQRNITAQVSIQNNLFEEQERQERNRGQQPPKEGGEESANLDFMLALSLQNEGQASSVAEQDFWRAVCEADQSHGGPRSLSDIKGAADEIMLPCEFCEELYPEELLIDHQTSCNPSRALPSLNTGSSSPRGVEEPDVIFQNFLQQAASNQLDSLMGLSNSHPVEESIIIPCEFCGVQLEEEVLFHHQDQCDQRPATATNHVTEGIPRLDSQPQETSPELPRRRVRHQGDLSSGYLDDTKQETANGPTSCLPPSRPINNMTATYNQLSRSTSGPRPGCQPSSPCVPKLSNSDSQDIQGRNRDSQNGAIAPGHVSVIRPPQNLYPENIVPSFSPGPSGRYGASGRSEGGRNSRVTPAAANYRSRTAKAKPSKQQGAGDAEEEEEE,soluble
